Target: biotin-15d-PGJ2
Experiment: biotin pull-down (avidin) with western-blot quantification (ImageJ)
Details: 293T cells transfected with FLAG-eIF4A1s

FLAG-eIF4A1 (from UniProt P60842) C264S
ratio to parent: 0.17

FLAG-eIF4A1 (from UniProt P60842) C264S; R295A
ratio to parent: 0.03

FLAG-eIF4A1 (from UniProt P60842) R295A
ratio to parent: 2.35
